The record followed here is patent publication US20250361322A1 (ICONIC THERAPEUTICS, published 2025).

Where two headings read alike, the source gives them in different places.

Common to all, as to test: live cell staining, flow cytometry, transfected HEK293
For orientation: A flow cytometer gives signals particle by particle.

In test [1] the target is T1, rTF (rat TF) (rat, UniProt P42533 29-252).
Another test deals with T2, h1-107_r (human/rat chimera).
T2 chain: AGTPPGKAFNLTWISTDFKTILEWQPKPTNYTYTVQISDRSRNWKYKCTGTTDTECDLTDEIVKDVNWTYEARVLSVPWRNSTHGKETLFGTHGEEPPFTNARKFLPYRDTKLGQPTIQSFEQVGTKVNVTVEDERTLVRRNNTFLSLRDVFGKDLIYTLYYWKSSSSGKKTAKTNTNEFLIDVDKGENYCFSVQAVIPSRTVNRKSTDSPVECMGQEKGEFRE

The target of a further test is T3, h1-77_r (human/rat chimera).
T3 construct: Human TF ECD with residues 1-77 replaced by rat segment

The target of another test is h159-219_r (human/rat chimera).
The target of test [2] is T4, hTF (human Tissue Factor construct) (human, UniProt P13726 33-251).
T4 construct: also called human TF

For test [3], the target named is T1, rTF (rat TF). The source holds these as a separate data set.
In another test the target is r141-194_h (rat/human chimera, UniProt P42533 29-252).
Another test concerns the target T5, hTF_N171H_T197K (human, UniProt P13726 33-251).
T5 chain: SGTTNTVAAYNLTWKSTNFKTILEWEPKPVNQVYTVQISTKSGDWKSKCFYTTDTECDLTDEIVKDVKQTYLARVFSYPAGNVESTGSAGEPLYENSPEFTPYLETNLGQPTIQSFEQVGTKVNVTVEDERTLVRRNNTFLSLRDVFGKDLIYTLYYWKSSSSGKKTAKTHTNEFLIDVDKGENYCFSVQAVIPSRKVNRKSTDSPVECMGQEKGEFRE

B1: 39A (antibody, V domains shown)
VH: QVQLVQSGAEVKKPGSSVKVSCKASGGTFSSNAIGWVRQAPGQGLEWMGSIIPIIGFANYAQKFQGRVTITADESTSTAYMELSSLRSEDTAVYYCARDSGYYYGASSFGMDVWGQGTTVTVSS
VL: EIVMTQSPATLSVSPGERATLSCRASQSVSSNLAWYQQKPGQAPRLLIYGASTRATGIPARFSGSGSGTEFTLTISSLQSEDFAVYYCEQYNNLPLTFGGGTKVEIK
notes: Human IgG (detected with anti-human IgG-Fc)
Take B1: the “percent antibody binding to TF construct relative to hTF” value with rTF (rat TF) [1] worked out at 0%; with h1-107_r, 0%; with h1-77_r, 0%; with h159-219_r it was 141%; in test [2], 100%; with rTF (rat TF) [3], 0%. In addition, the “percent antibody binding to TF construct relative to hTF” value with r141-194_h was determined as 0%; in the test with hTF_N171H_T197K, 94%.
